Data taken from paper PMC7013464.

Target: Gab2 608-620 (Homo sapiens), Q9UQC2
Experiment: flow

Row | Binder | Kd [nM]
1 | SHP2 N-SH2, Q06124 (protein) WFHPNITGVEAENLLLTRGVDGSFLARPSKSNPGDFALSVRRNGAVTHIKIQNTGDYYDLYGGEKFATLAELVQYYMEHHGQLKEKNGDVIELKYPL | 1.7
2 | SHP2 N-SH2, Q06124 (protein) WFHPNITGVEAENLLLTRGVDGSFLARPSKSNPGDFSLSVRRNGAVTHIKIQNTGDYYDLYGGEKFATLAELVQYYMEHHGQLKEKNGDVIELKYPL | 5.3
